US20180201670A1 (published 2018)

Key:
[1] = target: T1, analyte of Example 8 (not named); test: Biacore (SPR); analyte not named
T1 construct: Target of the Biacore run of Hu-6C1-H3bL2

[2] = target: T2, pH4-treated TTR (human, UniProt P02766 21-147); test: Sandwich ELISA (pH 4-TTR)
[3] = target: T2, pH4-treated TTR; test: ELISA; pH4-TTR captured on anti-His-coated plate, mAb 0.31-2.5 µg/ml
Method: Four lead mis-TTR mAbs (9D5, 14G8, 6C1, and 5A1) were assayed by ELISA at concentrations ranging from 0.31 to 2.5 μg/ml using both pH4.0-treated TTR (pH4-TTR) and native TTR as the coating antigen. TTR antigen preparation and ELISA protocols are described elsewhere in Materials and Methods (e-g).
Coated and blocked 96-well plates were treated with 50 μl per well of 2.5 μg/ml TTR antigen (either native TTR or pH4-TTR) for 1 hr. at room temperature. The plates were then washed two times with 250 μl per well of wash buffer (1× Tris Buffered Saline containing 0.05% Tween-20). Washed plates were then treated with 50 μl per well of the appropriate anti-TTR monoclonal antibody at concentrations ranging from of 0.31 to 2.5 μg/ml, for 1 hr.
The treated plates were washed 3 times with 250 μl perwell wash buffer. After washing, the plates were treated for 1 hr. with 50 μl per well of detection antibody comprising a 1:5,000 dilution of […] goat-anti-mouse (Jackson ImmunoResearch #115-035-164) in 1×PBS. The plate was then washed 3 times prior to the addition of 100 μl per well TMB substrate (Rockland). The HRP reaction was allowed to proceed at room temperature for 15 min. before quenching with a 50 μl per well volume of 1N […]. Spectroscopic absorbance was measured at a wavelength of 450 nm.

B1: Hu-6C1-H3bL2 (antibody, human IgG1, kappa, V domains shown)
VH: EVQLVESGGGLVQPGGSLKLSCAASGFTFSNYYMSWVRQAPGKRLEWVAYISIDGNNIYHPDSVKGRFTISRDNAKNTLYLQMNSLKAEDTAMYYCARDSDYGYFDVWGQGTLVTVSS
VL: DIVMTQTPLSLPVTPGEPASISCRSSQSIVHSNGNTYLEWYLQKPGQSPKLLIYKVSKRFSGVPDRFSGSGSGTDFTLKISRVEAEDVGVYYCFQGSHVPLTFGGGTKVEIKR
notes: also called Hu6C1VHv3b/VLv2; humanized 6C1 heavy chain version 3b / light chain version 2
Question: How did the Kd [1] turn out when B1 was run?
Answer: 1.46 nM

Question: What about the koff [1] of the same binder?
Answer: 0.000545 s⁻¹

Question: And the kon [1]?
Answer: 372000 M⁻¹ s⁻¹

B2: 9D5 (antibody, V domains shown)
VH: EVKLVESGGGLVQPGGSLKLSCAASGFTFSSYTMSWVRQTPEKRLELVAEISNSGDTTYYPDTVKGRFTFSRDNAKNTLYLQMSSLKSEDTAMYYCARHYYYGGGYGGWFFDVWGTGTTVTVSS
VL: DIVMTQAAPSVPVTPGESVSISCRSSKSLLHSNGNTYLYWFLQRPGQSPQLLIYRVSNLASGVPDRFSGSGSGTAFTLRISRVEAEDVGVYYCMQHLEYPLTFGAGTKLELK
Question: What does the source list for B2?
Answer: Kd [2]: 257 nM; Kd [3]: 282 nM
